Target: ephrin B3 expressed on CHO cells
Experiment: inferred by the filing from ELISA, Octet and flow cytometry taken together

wild-type (WT) human EphA4-Fc (Fc fusion)
concentration that would saturate: > 10 µg/mL
